Results taken from patent US20210380703A1.
Substitutions are numbered along the chain they refer to.

B1: 376_F06 (antibody, V domains shown)
VH: EVQLLESGGGLVQPGGSLRLSCAASGFTFSSYGMNWVRQAPGKGLEWVSGINYNGGYTGYADSVKGRFTISRDNSKNTLYLQMNSLRAEDTAVYYCARGANWHDTHLDYWGQGTLVTVSS
VL: DIQMTQSPSSLSASVGDRVTITCRASQSILTYVNWYQQKPGKAPKLVIYAATSRASGVPSRFSGSGSGTDFTLTISSLQPEDFATYYCQQSYETPLTFGGGTKVEIK
B2: 376_G05 (antibody, V domains shown)
VH: B1 VH with G33S, S49A, G59S, H106A
VL: B1 VL with L30I, T31S, T94S
B3: 376_G06 (antibody, V domains shown)
VH: B1 VH with S49A
VL: B1 VL with L30V, T31S, E93N, T94S
B4: 376_G10 (antibody, V domains shown)
VH: B1 VH with S30D, S49A, G59S, H106A
VL: B1 VL with T31S, V47L, T94S
B5: 376_H04 (antibody, V domains shown)
VH: B1 VH with G33S, S49A, T58K, H106A
VL: B1 VL with E93D, T94L
B6: 376_H11 (antibody, V domains shown)
VH: B1 VH with S30D, G33S, G50N, H106A
VL: B1 VL with L30S, T31R, V33L, V47L, A51V, R54L, T94S
B7: 365_A08 (antibody, V domains shown)
VH: B1 VH with G33S, S49A, G50S, T58K, G59S, N101T
VL: B1 VL with L30I, V33L, Y92D, E93N
B8: 365_C02 (antibody, V domains shown)
VH: B1 VH with S30D, G33S, G50N, T58K, N101T
VL: B1 VL with L30S, V33L, A55H, T94N
B9: 365_C04 (antibody, V domains shown)
VH: B1 VH with S30D, G33S, S49A, G50N, T58K, N101T
VL: B1 VL with V33L, R54L, E93D
B10: 365_D02 (antibody, V domains shown)
VH: B1 VH with G33S, N35H, S49A, G50S, G59S, N101T
VL: B1 VL with L30V, V33L, V47L, R54L, E93D, T94N
B11: 365_D10 (antibody, V domains shown)
VH: B1 VH with G33S, S49A, N101T
VL: B1 VL with L30S, V33L, V47L, T94S
B12: 365_F05 (antibody, V domains shown)
VH: B1 VH with S49A, G50S, G59S, N101T
VL: B1 VL with L30V, V47L
B13: 366_D08 (antibody, V domains shown)
VH: B1 VH with N35H, G50N, T58K, G59S, N101T
VL: B1 VL with T31S, R54L, T94N
B14: 366_G09 (antibody, V domains shown)
VH: B1 VH with S30D, S31D, G33S, S49A, G50S, G55S, N101T
VL: B1 VL with T31S, E93D, T94L
B15: 367_A02 (antibody, V domains shown)
VH: B1 VH with S30D, G50S, G55S, T58K, N101T
VL: B1 VL with L30I, T31S, V33L, V47L, A51V, E93D
B16: 367_B06 (antibody, V domains shown)
VH: B1 VH with G33S, S49A, G50N, N101T
VL: B1 VL with L30I, T31S, R54L, A55H, E93N, T94S
B17: 367_C08 (antibody, V domains shown)
VH: B1 VH with S30D, G33S, N35H, S49A, G59S, N101T
VL: B1 VL with V33L, V47L, R54L, Y92D, E93S, T94N
B18: 367_D05 (antibody, V domains shown)
VH: B1 VH with S31D, G33S, G50S, T58K, G59S, N101T
VL: B1 VL with L30I, T31S, R54L, E93D, T94S
B19: 367_D09 (antibody, V domains shown)
VH: B1 VH with S30D, S49A, G50S, T58K, G59S, N101T
VL: B1 VL with V33L, V47L, R54L, E93D, T94N
B20: 367_E07 (antibody, V domains shown)
VH: B1 VH with S31D, G33S, G50S, T58K, N101T
VL: B1 VL with T31S, T94N
B21: 367_F09 (antibody, V domains shown)
VH: B1 VH with S30D, G33S, N35H, S49A, G59S, N101T
VL: B1 VL with V33L, V47L, R54L, Y92D, E93S, T94N
B22: 368_C11 (antibody, V domains shown)
VH: B1 VH with S31D, G33S, G50S, G55S, T58K, G59S, N101T
VL: B1 VL with L30I, T31S, V33L, V47L, E93D, T94N
B23: 373_B06 (antibody, V domains shown)
VH: B1 VH with S31D, G33S, S49A, G99S, H106A
VL: B1 VL with A55H, T94S
B24: 373_B10 (antibody, V domains shown)
VH: B1 VH with S30D, G50N, G59S, G99S, H106A
VL: B1 VL with T31S, V33L, V47L, E93D, T94L
B25: 373_B12 (antibody, V domains shown)
VH: B1 VH with S30D, G50S, G55S, G59S, G99S, H106A
VL: B1 VL with L30V, T31S, V47L, E93D, T94S
B26: 373_C04 (antibody, V domains shown)
VH: B1 VH with G33S, S49A, G50N, G55S, G99S, H106A
VL: B1 VL with L30I, T31S, A51V, E93N, T94S
B27: 373_C06 (antibody, V domains shown)
VH: B1 VH with G33S, S49A, G99S, H106A
VL: B1 VL with L30V, T31S, E93D
B28: 373_C08 (antibody, V domains shown)
VH: B1 VH with G33S, S49A, G50N, G59S, G99S, H106A
VL: B1 VL with L30I, T31S, V33L, V47L, T52S, R54L, A55Q, E93N, T94N
B29: 373_C11 (antibody, V domains shown)
VH: B1 VH with G33S, G55S, G99S, H106A
VL: B1 VL with A51V
B30: 373_D01 (antibody, V domains shown)
VH: B1 VH with S30D, G33S, G55S, T58K, G59S, G99S
VL: B1 VL with T31S, E93D, T94S
B31: 373_D04 (antibody, V domains shown)
VH: B1 VH with S30D, G33S, G55S, T58K, G99S, H106A
VL: B1 VL with T31S, V33L, V47L, A55H, E93D, T94S
B32: 373_D05 (antibody, V domains shown)
VH: B1 VH with G33S, G55S, T58K, G99S, H106A
VL: B1 VL with T31S, V33L, E93D, T94S
B33: 373_D10 (antibody, V domains shown)
VH: B1 VH with S30D, G33S, G50N, G55S, T58K, G99S, H106A
VL: B1 VL with T31S, V47L, E93D, T94L
B34: 373_E01 (antibody, V domains shown)
VH: B1 VH with T58K, G99S, H106A
VL: B1 VL with L30V, T31S, V47L, A55H, E93N, T94N
B35: 373_E05 (antibody, V domains shown)
VH: B1 VH with S30D, G50N, G59S, G99S, H106A
VL: B1 VL with T31S, V47L, A51V, E93D, T94L
B36: 373_E07 (antibody, V domains shown)
VH: B1 VH with S49A, G50N, G59S, G99S, H106A
VL: B1 VL with V47L, R54L
B37: 373_E12 (antibody, V domains shown)
VH: B1 VH with G33S, S49A, G50N, G99S, H106A
VL: B1 VL with T31S, E93D
B38: 373_G10 (antibody, V domains shown)
VH: B1 VH with S31D, G50N, T58K, G59S, G99S, H106A
VL: B1 VL with L30V, T31S, V47L, E93D, T94L
B39: 373_G12 (antibody, V domains shown)
VH: B1 VH with G33S, G50N, G59S, G99S, H106A
VL: B1 VL with T31S, V33L, V47L, A51T, R54L, E93N, T94S
B40: 373_H01 (antibody, V domains shown)
VH: B1 VH with S30D, G33S, S49A, G50N, G99S, H106A
VL: B1 VL with T31S, V33L, E93D, T94N
B41: 373_H05 (antibody, V domains shown)
VH: B1 VH with S31D, G33S, S49A, G50N, T58K, G99S, H106A
VL: B1 VL
B42: 374_A07 (antibody, V domains shown)
VH: B1 VH with G33S, G55S, T58K, G99S, H106A
VL: B1 VL with T31S, V47L, A51V, E93D, T94L
B43: 374_B04 (antibody, V domains shown)
VH: B1 VH with G33S, G50N, G55S, G99S, H106A
VL: B1 VL with L30V, T31S, V33L, V47L, A51V, T94S
B44: 374_B06 (antibody, V domains shown)
VH: B1 VH with S30D, G33S, S49A, G55S, T58K, G99S
VL: B1 VL with V47L, E93D
B45: 374_B12 (antibody, V domains shown)
VH: B1 VH with S30D, G33S, S49A, G99S
VL: B1 VL with L30S, T31S, V33L, E93D, T94N
B46: 374_C03 (antibody, V domains shown)
VH: B1 VH with S30D, G33S, G55S, G59S, G99S, H106A
VL: B1 VL with V33L, V47L, E93D, T94S
B47: 374_C06 (antibody, V domains shown)
VH: B1 VH with S30D, S31D, G33S, G50S, G55S, T58K, G99S, H106A
VL: B1 VL with V47L, E93N, T94S
B48: 374_D08 (antibody, V domains shown)
VH: B1 VH with S30D, G55S, G99S
VL: B1 VL with V33L, V47L, A55H, T94S

How the values were obtained:
Human Fc (human) [1] = assay: ELISA; negative control
Human Fc (human) [2] = assay: ELISA, negative control

Binder	optical density (Human Fc (human) [1]) [OD]	optical density (Human Fc (human) [2]) [OD]
B1	0.284	
B2	0.252	
B3	0.267	
B4	0.321	
B5	0.34	
B6	0.325	
B7	0.256	
B8	0.362	
B9	0.305	
B10	0.486	
B11	0.641	
B12	0.376	
B13	0.312	
B14	0.291	
B15	0.305	
B16	0.378	
B17	0.278	
B18	0.265	
B19	0.381	
B20	0.221	
B21	0.289	
B22	0.275	
B23		0.221
B24		0.174

Binder	optical density (Human Fc (human) [1]) [OD]	optical density (Human Fc (human) [2]) [OD]
B25		0.172
B26		0.157
B27		0.163
B28		0.16
B29		0.171
B30		0.174
B31		0.168
B32		0.179
B33		0.189
B34		0.16
B35		0.176
B36		0.294
B37		0.17
B38		0.2
B39		0.174
B40		0.198
B41		0.201
B42		0.206
B43		0.222
B44		0.157
B45		0.257
B46		0.208
B47		0.18
B48		0.201
